{"source": "the supplement of paper PMC9112550", "about": "“Optimization of the antimicrobial peptide Bac7 by deep mutational scanning” (BMC Biology, 2022);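 further: peptides expressed intracellularly from a pBAD plasmid library in pooled LB shake-flask culture, induced with 0.3% L-arabinose, DNA abundance read by NGS, three biological replicates, DESeq2 with apeglm shrinkage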"}
{"tested_on": "Escherichia coli TOP10", "test": "shrunken log2 fold change of peptide-encoding DNA abundance (4.5 h post-induction vs induction); higher = less antimicrobial activity (less host growth inhibition)", "conditions": "time post-induction: 4.5 h; library: site-saturation at positions 5, 18, 19, 20"}
{"sequence": "RRIRWRPPRLPRPRPRPAAYPRP", "shrunken log2 fold change": 0.346}
{"sequence": "RRIRKRPPRLPRPRPRPTFHPRP", "shrunken log2 fold change": 0.136}
{"sequence": "RRIRFRPPRLPRPRPRPANNPRP", "shrunken log2 fold change": -0.917}
{"sequence": "RRIRYRPPRLPRPRPRPFTAPRP", "shrunken log2 fold change": -0.311}
{"sequence": "RRIRVRPPRLPRPRPRPYFEPRP", "shrunken log2 fold change": -0.26}
{"sequence": "RRIRIRPPRLPRPRPRPEIRPRP", "shrunken log2 fold change": -0.0172}
{"sequence": "RRIRKRPPRLPRPRPRPTPNPRP", "shrunken log2 fold change": 0.553}
{"sequence": "RRIRGRPPRLPRPRPRPQIGPRP", "shrunken log2 fold change": 0.345}
{"sequence": "RRIRTRPPRLPRPRPRPQRFPRP", "shrunken log2 fold change": 0.00548}
{"sequence": "RRIRKRPPRLPRPRPRPQGSPRP", "shrunken log2 fold change": -0.0103}
{"sequence": "RRIRKRPPRLPRPRPRPIQAPRP", "shrunken log2 fold change": -0.000921}
{"sequence": "RRIRMRPPRLPRPRPRPYQQPRP", "shrunken log2 fold change": -0.00196}
{"sequence": "RRIRIRPPRLPRPRPRPHFGPRP", "shrunken log2 fold change": -0.00693}
{"sequence": "RRIRGRPPRLPRPRPRPTKQPRP", "shrunken log2 fold change": 0.169}
{"sequence": "RRIRFRPPRLPRPRPRPENTPRP", "shrunken log2 fold change": 0.003}
{"sequence": "RRIRMRPPRLPRPRPRPDPLPRP", "shrunken log2 fold change": 0.255}
{"sequence": "RRIRWRPPRLPRPRPRPSCPPRP", "shrunken log2 fold change": -0.33}
{"sequence": "RRIRWRPPRLPRPRPRPQVWPRP", "shrunken log2 fold change": 0.576}
{"sequence": "RRIRNRPPRLPRPRPRPETNPRP", "shrunken log2 fold change": 0.196}
{"sequence": "RRIRHRPPRLPRPRPRPNMIPRP", "shrunken log2 fold change": -0.928}
{"sequence": "RRIRFRPPRLPRPRPRPCQAPRP", "shrunken log2 fold change": -0.0302}
{"sequence": "RRIRPRPPRLPRPRPRPLQVPRP", "shrunken log2 fold change": 0.013}
{"sequence": "RRIRDRPPRLPRPRPRPGYYPRP", "shrunken log2 fold change": 0.117}
{"sequence": "RRIRLRPPRLPRPRPRPFTSPRP", "shrunken log2 fold change": -0.153}
{"sequence": "RRIRERPPRLPRPRPRPDHLPRP", "shrunken log2 fold change": -0.223}
{"sequence": "RRIRRRPPRLPRPRPRPSIIPRP", "shrunken log2 fold change": -0.332}
{"sequence": "RRIRPRPPRLPRPRPRPPGMPRP", "shrunken log2 fold change": 0.501}
{"sequence": "RRIRHRPPRLPRPRPRPSYWPRP", "shrunken log2 fold change": 0.0148}
{"sequence": "RRIRSRPPRLPRPRPRPDDQPRP", "shrunken log2 fold change": 0.143}
{"sequence": "RRIRTRPPRLPRPRPRPCAAPRP", "shrunken log2 fold change": 0.0451}
{"sequence": "RRIRMRPPRLPRPRPRPTDFPRP", "shrunken log2 fold change": -0.0135}
{"sequence": "RRIRDRPPRLPRPRPRPTDQPRP", "shrunken log2 fold change": 0.118}
{"sequence": "RRIRKRPPRLPRPRPRPMCSPRP", "shrunken log2 fold change": -0.0421}
{"sequence": "RRIRDRPPRLPRPRPRPDKFPRP", "shrunken log2 fold change": 0.0288}
{"sequence": "RRIRGRPPRLPRPRPRPRFIPRP", "shrunken log2 fold change": 0.123}
{"sequence": "RRIRSRPPRLPRPRPRPFWHPRP", "shrunken log2 fold change": -0.0146}
{"sequence": "RRIRLRPPRLPRPRPRPNLLPRP", "shrunken log2 fold change": 0.153}
{"sequence": "RRIRMRPPRLPRPRPRPEQTPRP", "shrunken log2 fold change": 0.057}
{"sequence": "RRIRHRPPRLPRPRPRPFTMPRP", "shrunken log2 fold change": -0.349}
{"sequence": "RRIRRRPPRLPRPRPRPCCWPRP", "shrunken log2 fold change": 0.322}
{"sequence": "RRIRSRPPRLPRPRPRPRNTPRP", "shrunken log2 fold change": -0.411}
{"sequence": "RRIRKRPPRLPRPRPRPPWAPRP", "shrunken log2 fold change": 0.496}
{"sequence": "RRIRPRPPRLPRPRPRPPRTPRP", "shrunken log2 fold change": 0.609}
{"sequence": "RRIRERPPRLPRPRPRPIDQPRP", "shrunken log2 fold change": 0.00338}
{"sequence": "RRIRYRPPRLPRPRPRPVDFPRP", "shrunken log2 fold change": -0.226}
{"sequence": "RRIRRRPPRLPRPRPRPMEDPRP", "shrunken log2 fold change": 0.0525}
{"sequence": "RRIRYRPPRLPRPRPRPNKFPRP", "shrunken log2 fold change": -0.546}
{"sequence": "RRIRWRPPRLPRPRPRPVQVPRP", "shrunken log2 fold change": 0.0298}
{"sequence": "RRIRGRPPRLPRPRPRPLYAPRP", "shrunken log2 fold change": 0.64}
{"sequence": "RRIRNRPPRLPRPRPRPGVYPRP", "shrunken log2 fold change": -0.241}
{"sequence": "RRIRFRPPRLPRPRPRPEQRPRP", "shrunken log2 fold change": -0.0295}
{"sequence": "RRIRHRPPRLPRPRPRPLWWPRP", "shrunken log2 fold change": 0.237}
{"sequence": "RRIRYRPPRLPRPRPRPAYAPRP", "shrunken log2 fold change": -0.236}
{"sequence": "RRIRSRPPRLPRPRPRPQIMPRP", "shrunken log2 fold change": 1.11}
{"sequence": "RRIRVRPPRLPRPRPRPRFDPRP", "shrunken log2 fold change": 0.048}
{"sequence": "RRIRFRPPRLPRPRPRPQIRPRP", "shrunken log2 fold change": -0.231}
{"sequence": "RRIRLRPPRLPRPRPRPSEDPRP", "shrunken log2 fold change": -0.256}
{"sequence": "RRIRNRPPRLPRPRPRPVCAPRP", "shrunken log2 fold change": 0.559}
{"sequence": "RRIRSRPPRLPRPRPRPVCIPRP", "shrunken log2 fold change": -0.414}
{"sequence": "RRIRMRPPRLPRPRPRPAMKPRP", "shrunken log2 fold change": -0.00492}
{"sequence": "RRIRVRPPRLPRPRPRPKFLPRP", "shrunken log2 fold change": -0.00678}
{"sequence": "RRIRFRPPRLPRPRPRPTRKPRP", "shrunken log2 fold change": 0.516}
{"sequence": "RRIRLRPPRLPRPRPRPRLWPRP", "shrunken log2 fold change": 0.399}
{"sequence": "RRIRVRPPRLPRPRPRPLPLPRP", "shrunken log2 fold change": 0.0752}
{"sequence": "RRIRCRPPRLPRPRPRPSKWPRP", "shrunken log2 fold change": -0.0391}
{"sequence": "RRIRMRPPRLPRPRPRPEAQPRP", "shrunken log2 fold change": 3.76}
{"sequence": "RRIRPRPPRLPRPRPRPNTRPRP", "shrunken log2 fold change": -0.112}
{"sequence": "RRIRHRPPRLPRPRPRPNTVPRP", "shrunken log2 fold change": 0.0932}
{"sequence": "RRIRFRPPRLPRPRPRPFSLPRP", "shrunken log2 fold change": -0.375}
{"sequence": "RRIRRRPPRLPRPRPRPRPAPRP", "shrunken log2 fold change": 1.83}
{"sequence": "RRIRERPPRLPRPRPRPHGNPRP", "shrunken log2 fold change": -0.0832}
{"sequence": "RRIRWRPPRLPRPRPRPYICPRP", "shrunken log2 fold change": -0.329}
{"sequence": "RRIRTRPPRLPRPRPRPDPGPRP", "shrunken log2 fold change": 0.0486}
{"sequence": "RRIRVRPPRLPRPRPRPTENPRP", "shrunken log2 fold change": 0.00381}
{"sequence": "RRIRCRPPRLPRPRPRPAWIPRP", "shrunken log2 fold change": -0.197}
